Source: publication PMC4260453 (Molecular microbiology, 2011)

T1: DnaE (Bacillus subtilis, UniProt O34623 1-1115)
T1 sequence: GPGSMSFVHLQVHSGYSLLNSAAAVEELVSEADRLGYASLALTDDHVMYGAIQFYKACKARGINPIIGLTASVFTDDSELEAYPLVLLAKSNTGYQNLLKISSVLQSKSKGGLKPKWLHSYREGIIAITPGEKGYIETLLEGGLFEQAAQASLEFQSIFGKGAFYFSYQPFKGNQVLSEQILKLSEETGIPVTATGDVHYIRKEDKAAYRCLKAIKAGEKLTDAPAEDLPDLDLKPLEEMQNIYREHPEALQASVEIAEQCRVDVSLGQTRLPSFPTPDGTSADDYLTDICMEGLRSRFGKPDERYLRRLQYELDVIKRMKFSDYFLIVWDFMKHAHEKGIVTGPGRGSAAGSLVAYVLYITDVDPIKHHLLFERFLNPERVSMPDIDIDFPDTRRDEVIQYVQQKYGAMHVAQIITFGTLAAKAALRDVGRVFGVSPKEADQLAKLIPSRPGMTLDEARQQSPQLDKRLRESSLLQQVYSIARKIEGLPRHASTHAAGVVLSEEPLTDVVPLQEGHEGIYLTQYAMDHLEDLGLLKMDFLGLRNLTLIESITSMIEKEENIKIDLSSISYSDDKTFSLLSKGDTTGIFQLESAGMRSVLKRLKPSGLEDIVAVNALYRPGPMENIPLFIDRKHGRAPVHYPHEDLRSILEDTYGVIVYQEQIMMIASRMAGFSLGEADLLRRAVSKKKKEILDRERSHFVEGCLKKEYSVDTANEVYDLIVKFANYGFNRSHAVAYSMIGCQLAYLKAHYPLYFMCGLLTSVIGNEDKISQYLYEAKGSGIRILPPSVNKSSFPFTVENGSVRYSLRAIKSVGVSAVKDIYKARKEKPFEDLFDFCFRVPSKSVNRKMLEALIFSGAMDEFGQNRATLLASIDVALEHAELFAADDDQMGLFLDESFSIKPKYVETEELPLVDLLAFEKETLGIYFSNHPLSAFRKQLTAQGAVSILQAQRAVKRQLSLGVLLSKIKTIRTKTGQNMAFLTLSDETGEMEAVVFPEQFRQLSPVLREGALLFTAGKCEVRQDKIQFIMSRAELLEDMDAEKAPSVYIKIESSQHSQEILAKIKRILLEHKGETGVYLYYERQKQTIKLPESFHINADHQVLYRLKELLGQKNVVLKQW

B1: His6-SSB (natural protein, Bacillus subtilis, UniProt P37455 1-172, looked up)
chain: MLNRVVLVGRLTKDPELRYTPNGAAVATFTLAVNRTFTNQSGEREADFINCVTWRRQAENVANFLKKGSLAGVDGRLQTRNYENQQGQRVFVTEVQAESVQFLEPKNGGGSGSGGYNEGNSGGGQYFGGGQNDNPFGGNQNNQRRNQGNSFNDDPFANDGKPIDISDDDLPF
B2: MutS (natural protein, Bacillus subtilis)
chain: GPGSMAGYTPMIQQYLKIKAEHQDAFLFFRLGDFYEMFFEDAKKASQELEITLTSRDGGAAEKIPMCGVPYHSASAYIEQLIKKGYKVAICEQTEDPKAAKGVVKREVVQLITPGTVMDGKGIHESENNFIASVSACSNGYGLALSDLTTGENLAVLIERLEDVISEIYSVGAREIVVSGSLDADTVAQLRERCGATISIEDGETDEHVTIIEHLNNEDITKTFLRLYTYLKRTQKRSLDHLQPVQVYELEEAMKIDLYSKRNLELTETIRSKNKKGSLLWLLDETKTAMGGRLLKQWIDRPLIRVNQIEERQEMVETLMSHFFEREDLRERLKEVYDLERLAGRVAFGNVNARDLIQLKESLKQVPGIKQLVASLAHDKAKERAKRIDPCGDVLELLEEALYENPPLSVKEGNLIKDGYNQKLDEYRDASRNGKDWIARLEQQEREYTGIRSLKVGFNKVFGYYIEVTKANLHLLEEGRYERKQTLTNAERYITPELKEKEALILEAENNICELEYELFTELREKVKQYIPRLQQLAKQMSELDALQCFATISENRHYTKPEFSKDEVEVIEGRHPVVEKVMDSQEYVPNNCMMGDNRQMLLITGPNMSGKSTYMRQIALISIMAQIGCFVPAKKAVLPIFDQIFTRIGAADDLISGQSTFMVEMLEAKNAIVNATKNSLILFDEIGRGTSTYDGMALAQAIIEYVHDHIGAKTLFSTHYHELTVLEDKLPQLKNVHVRAEEYNGTVVFLHQIKEGAADKSYGIHVAQLAELPGDLIARAQDILKELEHSGNKPEVPVQKPQVKEEPAQLSFFDEAEKPAETPKLSKKEKQVIDAFKSLNILDMTPLEAMNEMYKLQKKLH

Target: T1, DnaE
Assay: far-Western, overlay or dot blot

Binder | binding result
B1 | binds
B2 | binds
